Consider 95 substances from the Human Domainome abundance scans (Beltran et al. 2025).

± gives the uncertainty stated by the source.

This series can be described thus: abundance fitness (aPCA) (normalised: wild type 0, dead -1); higher = more abundant; growth selection in yeast, the domain comes from the species named. The conditions noted are these: Homo sapiens.
“Transcriptional activator Myb A180C, P10242”: the abundance fitness is -0.021 ± 0.12.

For “Transcriptional activator Myb A180D, P10242”, the abundance fitness is -0.022 ± 0.12.

On to “Transcriptional activator Myb A180E, P10242”, for which the abundance fitness turned out to be 0.062 ± 0.098.

In the case of “Transcriptional activator Myb A180G, P10242”, the abundance fitness was -0.244 ± 0.049.

For “Transcriptional activator Myb A180H, P10242”, the abundance fitness is -0.23 ± 0.097.

Turning to “Transcriptional activator Myb A180I, P10242”, the abundance fitness was -0.005 ± 0.32.

Consider “Transcriptional activator Myb A180K, P10242”, for which the abundance fitness is -0.266 ± 0.082.

Consider “Transcriptional activator Myb A180L, P10242”, for which the abundance fitness is -0.111 ± 0.073.

“Transcriptional activator Myb A180M, P10242” showed an abundance fitness of -0.058 ± 0.16.

Take “Transcriptional activator Myb A180N, P10242”: the abundance fitness is -0.134 ± 0.33.

Substance “Transcriptional activator Myb A180P, P10242” yielded an abundance fitness of -0.76 ± 0.12.

“Transcriptional activator Myb A180Q, P10242”: the abundance fitness is -0.002 ± 0.12.

“Transcriptional activator Myb A180R, P10242”: the abundance fitness was -0.327 ± 0.051.

The substance “Transcriptional activator Myb A180S, P10242” came in with an abundance fitness of -0.051 ± 0.083.

“Transcriptional activator Myb A180T, P10242” came in with an abundance fitness of -0.174 ± 0.078.

Turning to “Transcriptional activator Myb A180W, P10242”, the abundance fitness is -0.28 ± 0.11.

The substance “Transcriptional activator Myb A180Y, P10242” gave an abundance fitness of -0.803 ± 0.43.

On to “Transcriptional activator Myb D152A, P10242”, for which the abundance fitness was -0.24 ± 0.066.

The substance “Transcriptional activator Myb D152C, P10242” registered an abundance fitness of -0.833 ± 0.14.

Substance “Transcriptional activator Myb D152E, P10242” displayed an abundance fitness of 0.105 ± 0.077.

In turn, “Transcriptional activator Myb D152F, P10242” returned an abundance fitness of -0.752 ± 0.12.

“Transcriptional activator Myb D152G, P10242”: the abundance fitness is -0.452 ± 0.053.

Regarding “Transcriptional activator Myb D152H, P10242”, the abundance fitness was -0.695 ± 0.22.

Substance “Transcriptional activator Myb D152K, P10242” yielded an abundance fitness of -0.311 ± 0.1.

“Transcriptional activator Myb D152L, P10242” gave an abundance fitness of -0.249 ± 0.075.

Substance “Transcriptional activator Myb D152M, P10242” had an abundance fitness of -0.381 ± 0.15.

In turn, “Transcriptional activator Myb D152N, P10242” registered an abundance fitness of -0.227 ± 0.074.

“Transcriptional activator Myb D152Q, P10242” had an abundance fitness of -0.065 ± 0.12.

“Transcriptional activator Myb D152R, P10242” yielded an abundance fitness of -0.519 ± 0.068.

The substance “Transcriptional activator Myb D152S, P10242” displayed an abundance fitness of -0.287 ± 0.072.

“Transcriptional activator Myb D152T, P10242” showed an abundance fitness of -0.138 ± 0.082.

In the case of “Transcriptional activator Myb D152V, P10242”, the abundance fitness is -0.304 ± 0.067.

Consider “Transcriptional activator Myb D152W, P10242”, for which the abundance fitness was -0.403 ± 0.098.

For “Transcriptional activator Myb D152Y, P10242”, the abundance fitness was -0.38 ± 0.12.

With “Transcriptional activator Myb D178N, P10242”, the abundance fitness was -0.533 ± 0.35.

In turn, “Transcriptional activator Myb E149D, P10242” returned an abundance fitness of -0.008 ± 0.27.

In turn, “Transcriptional activator Myb E149G, P10242” yielded an abundance fitness of -0.143 ± 0.16.

“Transcriptional activator Myb E149L, P10242” showed an abundance fitness of 0.009 ± 0.22.

“Transcriptional activator Myb E149N, P10242”: the abundance fitness was -0.526 ± 0.35.

Consider “Transcriptional activator Myb E149R, P10242”, for which the abundance fitness was -0.203 ± 0.12.

In turn, “Transcriptional activator Myb E149S, P10242” showed an abundance fitness of -0.188 ± 0.4.

For “Transcriptional activator Myb E149T, P10242”, the abundance fitness is -0.634 ± 0.43.

On to “Transcriptional activator Myb E149W, P10242”, for which the abundance fitness is -0.719 ± 0.47.

In the case of “Transcriptional activator Myb E150A, P10242”, the abundance fitness was found to be 0.099 ± 0.075.

With “Transcriptional activator Myb E150C, P10242”, the abundance fitness is -0.219 ± 0.1.

In the case of “Transcriptional activator Myb E150D, P10242”, the abundance fitness is -0.152 ± 0.095.

On to “Transcriptional activator Myb E150F, P10242”, for which the abundance fitness is -0.129 ± 0.16.

With “Transcriptional activator Myb E150H, P10242”, the abundance fitness is -0.41 ± 0.15.

With “Transcriptional activator Myb E150I, P10242”, the abundance fitness was -0.172 ± 0.12.

Turning to “Transcriptional activator Myb E150K, P10242”, the abundance fitness was found to be 0.117 ± 0.11.

“Transcriptional activator Myb E150L, P10242” showed an abundance fitness of -0.17 ± 0.064.

The substance “Transcriptional activator Myb E150M, P10242” showed an abundance fitness of -0.097 ± 0.086.

On to “Transcriptional activator Myb E150N, P10242”, for which the abundance fitness was -0.004 ± 0.15.

Substance “Transcriptional activator Myb E150P, P10242” displayed an abundance fitness of -0.468 ± 0.12.

With “Transcriptional activator Myb E150Q, P10242”, the abundance fitness was 0.026 ± 0.14.

Take “Transcriptional activator Myb E150R, P10242”: the abundance fitness is 0 ± 0.061.

“Transcriptional activator Myb E150T, P10242” yielded an abundance fitness of -0.103 ± 0.1.

Regarding “Transcriptional activator Myb E150V, P10242”, the abundance fitness was -0.207 ± 0.061.

“Transcriptional activator Myb E150W, P10242” gave an abundance fitness of -0.208 ± 0.083.

As to “Transcriptional activator Myb E151A, P10242”, the abundance fitness is -0.597 ± 0.066.

As for “Transcriptional activator Myb E151C, P10242”, the abundance fitness is -1.1 ± 0.21.

“Transcriptional activator Myb E151D, P10242”: the abundance fitness was -0.348 ± 0.15.

For “Transcriptional activator Myb E151F, P10242”, the abundance fitness was -0.927 ± 0.19.

In turn, “Transcriptional activator Myb E151G, P10242” yielded an abundance fitness of -0.815 ± 0.056.

In the case of “Transcriptional activator Myb E151H, P10242”, the abundance fitness is -0.57 ± 0.13.

As to “Transcriptional activator Myb E151I, P10242”, the abundance fitness is -0.49 ± 0.14.

Regarding “Transcriptional activator Myb E151L, P10242”, the abundance fitness is -0.482 ± 0.069.

As for “Transcriptional activator Myb E151M, P10242”, the abundance fitness is -0.624 ± 0.12.

On to “Transcriptional activator Myb E151N, P10242”, for which the abundance fitness is -0.674 ± 0.12.

As for “Transcriptional activator Myb E151P, P10242”, the abundance fitness was -0.758 ± 0.15.

On to “Transcriptional activator Myb E151S, P10242”, for which the abundance fitness was -0.73 ± 0.088.

In turn, “Transcriptional activator Myb E151T, P10242” came in with an abundance fitness of -0.731 ± 0.12.

Substance “Transcriptional activator Myb E151V, P10242” gave an abundance fitness of -0.466 ± 0.074.

Turning to “Transcriptional activator Myb E151W, P10242”, the abundance fitness was -0.835 ± 0.078.

Substance “Transcriptional activator Myb E151Y, P10242” showed an abundance fitness of -1.12 ± 0.36.

Consider “Transcriptional activator Myb E168A, P10242”, for which the abundance fitness was -0.287 ± 0.093.

The substance “Transcriptional activator Myb E168C, P10242” yielded an abundance fitness of -0.464 ± 0.11.

The substance “Transcriptional activator Myb E168D, P10242” returned an abundance fitness of -0.133 ± 0.09.

With “Transcriptional activator Myb E168F, P10242”, the abundance fitness was -0.574 ± 0.12.

Consider “Transcriptional activator Myb E168G, P10242”, for which the abundance fitness was -0.668 ± 0.07.

Regarding “Transcriptional activator Myb E168H, P10242”, the abundance fitness is -0.548 ± 0.36.

In turn, “Transcriptional activator Myb E168K, P10242” showed an abundance fitness of -0.279 ± 0.11.

For “Transcriptional activator Myb E168L, P10242”, the abundance fitness was -0.419 ± 0.069.

“Transcriptional activator Myb E168M, P10242” registered an abundance fitness of -0.533 ± 0.16.

For the substance “Transcriptional activator Myb E168N, P10242”, the abundance fitness is -0.492 ± 0.17.

Take “Transcriptional activator Myb E168P, P10242”: the abundance fitness is -0.833 ± 0.13.

On to “Transcriptional activator Myb E168Q, P10242”, for which the abundance fitness is -0.182 ± 0.13.

In turn, “Transcriptional activator Myb E168R, P10242” had an abundance fitness of -0.541 ± 0.067.

With “Transcriptional activator Myb E168S, P10242”, the abundance fitness was -0.325 ± 0.084.

In turn, “Transcriptional activator Myb E168T, P10242” registered an abundance fitness of -0.573 ± 0.32.

“Transcriptional activator Myb E168V, P10242”: the abundance fitness was -0.61 ± 0.077.

As for “Transcriptional activator Myb E168W, P10242”, the abundance fitness was -0.79 ± 0.1.

“Transcriptional activator Myb E168Y, P10242” yielded an abundance fitness of -0.657 ± 0.14.

Turning to “Transcriptional activator Myb E194A, P10242”, the abundance fitness was -0.055 ± 0.086.

Turning to “Transcriptional activator Myb E194C, P10242”, the abundance fitness was -0.226 ± 0.21.
